Blank lines part the entries; values can stand above or below the binder they belong to. Where no end group is shown, it is not given here.
Tests used:
[1] = biological target: T1, AVI-tag biotinylated oligomeric flTau (human, UniProt P10636-8 1-441, site-specific biotin on AVI-tag); test: capture ELISA, antibody on anti-IgG plate, biotinylated oligoTau titrated, O.D.
T1 construct: also called oligoTau; oligomeric Tau
Experimental: (§1) For the oligoTau and monoTau capture ELISAs, antibodies contained in serum-free sterile hybridoma supernatants were immobilized on an anti-IgG coated plate at 500-fold dilution, followed by the incubation of oligoTau or monoTau, both with site-specific biotinylation via an AVI-tag. The target incubations started at 5 μg/mL and then were diluted 8- or 16-fold. Streptavidin-HRP and ABTS substrate was used for signal quantitation in a plate reader (Tecan, Switzerland). Results are expressed as O.D.

[2] = biological target: T2, full-length human Tau (flTau) (human, UniProt P10636-8 1-441); test: indirect ELISA, flTau coated, hybridoma supernatant diluted, O.D.
T2 construct: range 1-441; bought (SignalChem); also called human Tau-441
T2 sequence (P10636 other isoform, or with tags, fused parts or gaps limits assumed): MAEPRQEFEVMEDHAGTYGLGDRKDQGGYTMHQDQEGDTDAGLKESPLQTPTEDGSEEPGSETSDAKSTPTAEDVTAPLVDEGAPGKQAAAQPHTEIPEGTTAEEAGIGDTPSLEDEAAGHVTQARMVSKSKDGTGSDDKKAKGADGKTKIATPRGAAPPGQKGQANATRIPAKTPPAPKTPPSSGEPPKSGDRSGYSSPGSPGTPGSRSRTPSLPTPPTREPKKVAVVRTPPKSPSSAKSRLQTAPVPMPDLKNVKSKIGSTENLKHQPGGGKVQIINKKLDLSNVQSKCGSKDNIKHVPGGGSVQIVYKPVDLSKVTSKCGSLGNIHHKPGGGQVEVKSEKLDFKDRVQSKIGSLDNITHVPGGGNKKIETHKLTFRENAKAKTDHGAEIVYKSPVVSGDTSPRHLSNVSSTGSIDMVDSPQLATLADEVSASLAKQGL
Experimental: Coating was done overnight in phosphate-buffered saline (PBS) at 4° C. Plates were washed thoroughly with 0.05% Tween-20/PBS and then blocked with 1% bovine serum albumin (BSA) in 0.05% Tween-20/PBS for 1 hr at 37° C. The antibody contained in the hybridoma supernatant was then added at the indicated dilutions, and incubated for 2 hrs at 37° C. after which the plates were washed as described previously.
For the indirect ELISAs, an AP-conjugated anti-mouse IgG secondary antibody (Jackson ImmunoResearch Laboratories, United Kingdom) was added at 1/6000 dilution in 0.05% Tween-20/PBS for 2 hr at 37° C. After the final wash, plates were incubated with p-nitrophenyl phosphate disodium hexahydrate (pNPP; Sigma-Aldrich, Switzerland) phosphatase substrate solution, and read at 405 nm using an ELISA plate reader (Tecan, Switzerland). Results are expressed as optical densities (O.D.).

[3] = biological target: T3, AVI-tag biotinylated monomeric flTau (human, UniProt P10636-8 1-441, site-specific biotin on AVI-tag); test: capture ELISA, antibody on anti-IgG plate, biotinylated monoTau titrated, O.D.
T3 construct: also called monoTau; monomeric Tau
Experimental: as §1

[4] = biological target: T4, 0N4R Tau (human, UniProt P10636-6 1-383); test: indirect or sandwich ELISA on recombinant human Tau isoforms
T4 construct: also called 0N-Tau
T4 sequence (P10636 other isoform, or with tags, fused parts or gaps limits assumed): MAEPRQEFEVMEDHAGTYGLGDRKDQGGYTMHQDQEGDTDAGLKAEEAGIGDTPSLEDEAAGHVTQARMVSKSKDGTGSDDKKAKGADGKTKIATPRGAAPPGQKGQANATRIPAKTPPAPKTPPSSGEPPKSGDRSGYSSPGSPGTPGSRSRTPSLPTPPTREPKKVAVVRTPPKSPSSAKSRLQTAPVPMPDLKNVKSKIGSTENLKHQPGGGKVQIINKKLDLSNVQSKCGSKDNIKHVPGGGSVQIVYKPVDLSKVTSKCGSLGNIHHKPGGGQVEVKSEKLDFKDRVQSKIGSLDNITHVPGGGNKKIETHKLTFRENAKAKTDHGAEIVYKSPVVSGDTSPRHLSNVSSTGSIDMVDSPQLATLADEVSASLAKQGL

[5] = biological target: T2, full-length human Tau (flTau); test: SPR, hybridoma Ab on anti-IgG chip, flTau analyte
Outline: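 Unpurified antibodies from serum-free hybridoma supernatants were captured on an anti-IgG SPR chip (Biacore T-100), and flTau was flowed as analyte. KD was obtained from kinetic analysis with a 1:1 Langmuir fit.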

[6] = biological target: T5, recombinant human Tau monomer, 2N4R isoform (amino acids 2-441) (human, UniProt P10636-8 2-441); test: SPR, mIgG2a captured, Tau monomer analyte, 1:1 fit
T5 construct: range 2-441; N-terminal His-tag removed with TEV protease; also called monomeric Tau
T5 sequence (P10636 other isoform, or with tags, fused parts or gaps limits assumed): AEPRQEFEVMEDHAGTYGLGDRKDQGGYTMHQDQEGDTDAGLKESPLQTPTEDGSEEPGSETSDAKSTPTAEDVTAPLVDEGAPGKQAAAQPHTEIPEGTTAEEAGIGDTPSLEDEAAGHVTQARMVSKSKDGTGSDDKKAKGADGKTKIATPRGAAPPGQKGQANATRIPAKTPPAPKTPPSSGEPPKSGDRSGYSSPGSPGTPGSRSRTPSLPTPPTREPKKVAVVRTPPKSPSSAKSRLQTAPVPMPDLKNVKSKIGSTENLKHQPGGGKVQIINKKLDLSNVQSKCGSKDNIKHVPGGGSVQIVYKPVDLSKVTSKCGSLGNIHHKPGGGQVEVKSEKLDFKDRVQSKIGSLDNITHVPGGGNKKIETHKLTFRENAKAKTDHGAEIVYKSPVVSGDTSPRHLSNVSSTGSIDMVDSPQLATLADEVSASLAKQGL
Outline: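 Antibodies in mIgG2a format captured on anti-mouse IgG surface at 1 μg/ml (30 or 45 s) or 0.1 μg/ml (70 or 150 s), 10 μl/min, in HBSP (10 mM HEPES pH7.4, 150 mM NaCl, 0.05% Tween 20). Tau monomer flowed as analyte; association 180-480 s, dissociation 300-600 s, 1:1 fit.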

[7] = biological target: T5, recombinant human Tau monomer, 2N4R …; test: SPR, human Fab capture kit, Tau monomer analyte
Experimental: Affinity was assessed at 25° C. using a Biacore T200 instrument, the GE Biacore human FAb capture kit and a CM5 Series S chip. The hIgG were diluted to 0.5 μg/ml in 10 mM HEPES pH7.4, 150 mM NaCl, 0.05% Tween 20 (running buffer, HBSP) and captured at a flow rate of 10 μl/min for 180 seconds. Kinetic data was collected for Human Tau monomer injected at concentrations of 0, 0.4, 1.2, 3.7, 11, 11, 33 and 100 nM in HBSP, using a flow rate of 30 μl/min, a 300 second association phase and a 600 second dissociation phase. Between cycles the surface was regenerated using two sequential 60 second injections of 10 mM Glycine pH 2.1. Data was fit to a 1:1 binding model.

[8] = biological target: T6, Tau fragment 37-51 (human, UniProt P10636-8 37-51); test: ELISA on Tau 15-mer peptides, O.D.; conditions of this panel not given
T6 construct: range 37-51
T6 peptide (looked up): GDTDAGLKESPLQTP

[9] = biological target: T7, Tau fragment 19-33 (human, UniProt P10636-8 19-33, not fully specified); test: as above
T7 construct: range 19-33
T7 peptide (looked up): GLGDRKDQGGYTMHQ

[10] = biological target: T8, MAPT(10-24) (human, also: biotinylated, site not given here); test: as above
T8 construct: also called Tau fragment 10-24
T8 peptide: VMEDHAGTYGLGDRK

[11] = biological target: T9, Tau fragment 1-15 (human, UniProt P10636-8 1-15); test: as above
T9 construct: range 1-15
T9 peptide (looked up): MAEPRQEFEVMEDHA

[12] = biological target: T10, Tau fragment 28-42 (human, UniProt P10636-8 28-42, not fully specified); test: as above
T10 construct: range 28-42
T10 peptide (looked up): GYTMHQDQEGDTDAG

B1: 14F5-D9 (antibody, V domains shown)
VH: EVKLVESGGGLVQPGGSLRLSCATSGFTFSDFYMEWVRQSPGKRLEWIAASKNKANDYTTEYNASVKDRFFVSRDTSQSILYLQMNALRAEDTAIYYCARDALGTVFAYWGQGTLVTVSA
VL: DVVMTQTPLSLPVSLGDQASISCRSSQSLVHSNGNTYLHWYLQKPGQSPKLLIYKVFNRFSGVPDRFSGSGSGTDFTLKISRVEAEDLGVYFCSQSTLVPLTFGAGTKLELK
notes: hybridoma supernatant
- binding result [1]: binds
- binding result [2]: binds
- binding result [3]: binds

B2: 30D12-B5 (antibody, V domains shown)
VH: EVQLQQSGAELVKPGASVKLSCTTSGFNIKDTYMHWVKQRPEQGLEWIGGIDPANGNTKYDPKFQGKATITADTSSNTAYLQLSSLTSEDTAVYYCAHGNFVYWGQGTLVTVSA
VL: DVVMTQTPLSLSVTIGQPASISCKSSQSLLYSNGKTYLNWFQQRPGQAPKHLMYQVSKLDPGIPDRFSGSGSETDFTLKISRVEAEDLGVYYCLQGTYYPLTFGAGTNLELK
notes: hybridoma supernatant
- binding result [4]: no binding (tested: not given)
- Kd [5]: 2 nM

B3: 77D1-D2 (antibody, V domains shown)
VH: EVQLQQSVAELVRPGASVTLSCTSSGFNIKNTYMHWVIQRPEQGLEWIGKIDPAIVNTKYAPKFQGKATITADTSSNTAYLQLSSLTSEDTGIYYCAEGALLYWGLGTSVTVSS
VL: DVVMTQTPLSLSVTIGQPASISCKSSQSLLHSNGKTYLNWLQQRPGQAPKLLMYLVSKVDPGIPDRFSGSGSETDFTLKISRVEAEDLGVYYCFQGTYYPHTFGGGTKLEIK
notes: hybridoma supernatant
- binding result [4]: no binding (tested: not given)
- Kd [5]: 0.5 nM

B4: 73H6-B8 (antibody, V domains shown)
VH: QVQLKESGPGLVAPSQSLSITCTISGFSLTSYGVHWVRQPPGKGLEWLVVIWSDGSTTYNSALKSRLSISKDNSKSQVFLKMNSLQTDDTAMYYCARQGGFITTAYYAMDYWGQGTSVTVSS
VL: DIVMSQSPSSLAVSAGEKVTMSCKSSQSLLNSRTRKNYLAWYQQKPGQSPKLLIYWASTRESGVPDRFTGSGSGTDFTLTISSVQAEDLAVYYCKQSYNLYTFGGGTKLEIK
notes: hybridoma supernatant
- binding result [1]: binds
- binding result [3]: binds

B8: hu37D3-H9.v28.A4 hIgG4.S228P.YTE (antibody, V domains shown)
VH: EVQLVESGGGLVQPGGSLRLSCAASGLIFRSYGMSWVRQAPGKGLEWVATINSGGTYTYYPDSVKGRFTISRDNSKNTLYLQMNSLRAEDTAVYYCANSYSGAMDYWGQGTLVTVSS
VL: DDVLTQTPLSLPVTPGQPASISCRSSQSIVHSNGNTYLEWYLQKPGQSPQLLIYKVSNRFSGVPDRFSGSGSGTDFTLKISRVEAEDVGVYYCFQGSLVPWTFGQGTKVEIKR
notes: also called hu37D3.v28.A4 hIgG4-S228P.YTE
- Kd [7]: 1.4 nM
- koff [7]: 0.0009 s⁻¹
- kon [7]: 600000 M⁻¹ s⁻¹

B9: 19H6-F7 (antibody, mouse IgG2a, V domains shown)
VH: EVQLVESGGDLVKPGGSLKLSCAASGFTFSSYGMSWVRQTPDKRLEWVATISSGGTYTYYPDSVKGRFTISRDNAKNTLYLQMSSLKSEDTAMYYCAPSYDGAMDYWGQGTSVTVSS
VL: DVLMTQTPLSLPVSLGDQASISCRSSQSIVHSNGNTYLEWYLQKPGQSPKLLIYKVSNRFSGVPDRFSGSGSGTDFTLKISRVEAEDLGVYYCFQGSLVPWTFGGGTKLEIK
- Kd [5]: 39 nM
- Kd [6]: 10 nM
- koff [6]: 0.002 s⁻¹
- kon [6]: 200000 M⁻¹ s⁻¹
- EC50 (read off the curve) [1]: ~0.2 µg/mL
- binding result [8]: no binding (tested: not given)
- binding result [9]: no binding (tested: not given)
- binding result [10]: binds
- binding result [11]: no binding (tested: not given)
- binding result [12]: no binding (tested: not given)

B11: 3A4-H4 (antibody, mouse IgG2a, V domains shown)
VH: EVQLVESGGDLVKPGGSLKLSCAASGFTFSSYGMSWVRQTPDKRLEWVATISSGGTYTYYPDSVKGRFTISRDNAKNTLYLQMSSLKSEDTAMYFCATSYDGAMDYWGQGTSVTVSS
VL: DVLMTQTPLSLPVSLGDQASISCRSSQNIVHSNGNTYLEWYLQKPGQSPKLLIYKVSNRFSGVPDRFSGSGSGTDFTLKISRVEAEDLGVYYCFQGTLVPWTFGGGTKLEIK
- Kd [5]: 7.8 nM
- Kd [6]: 12 nM
- koff [6]: 0.0003 s⁻¹
- kon [6]: 30000 M⁻¹ s⁻¹
- EC50 (read off the curve) [1]: ~0.09 µg/mL
- binding result [8]: no binding (tested: not given)
- binding result [9]: no binding (tested: not given)
- binding result [11]: no binding (tested: not given)
- binding result [12]: no binding (tested: not given)

Further lines, results first:

- binding result [4]: no binding (tested: not given)
- Kd [5]: 4.7 nM
B5: 211G6-B6 (antibody, V domains shown)
VH: QVQLKESGPGLVAPSQSLSITCTVSGFSLTSYAISWVRQPPGKGLEWLGVIWTGGGTNYNSALKSRLSITKDNSKNQVFFRMNSLQTDDTARYYCARKKLYDYDGGYFFDYWGQGTTLTVSS
VL: DIVMSQSPSSLAMSVGEKVTMSCKSNQSLLYSSNQKNYLAWYQQKPGQSPKLLIYWASTRESGVPDRFTGSGSGTDFTLTISSVKAEDLAVYYCHQYYSYPWTFGGGTKLEIK

- binding result [4]: no binding (tested: not given)
- Kd [6]: 171 nM
- koff [6]: 0.04 s⁻¹
- kon [6]: 200000 M⁻¹ s⁻¹
B6: 55E7-F11 (antibody, mouse IgG2a, V domains shown)
VH: EVKLEESGGGLVQPGGSMKLSCVASGFTFSNYWMNWVRQSPEKGLEWVAQIRLKSDNYATHYAESVKGRFTISRDDSKSSVYLQMNNLRAEDTGIYYCAGYFYGGYFDVWGTGTTVTVSS
VL: ELVLTQSPTTMAASPGKKITITCSASSSISSNYLHWYQQKPGFSPKLLIYRTSNLASGVPARFSGSGSGTSYSLTIGTMEAEDVATYYCQQGSSLPFTFGSGTKLEIK

- binding result [4]: no binding (tested: not given)
- Kd [5]: 2 nM
B7: 72E12-H9 (antibody, V domains shown)
VH: EVKLEESGGGLVQPGGSMKLSCVASGFTFSNYWMNWVRQSPEKGLEWVAQIRLKSDNYATHYAESVKGRFTISRDDSKSSVYLQMNNLRAEDTGIYYCAGYFYGGYFDVWGTGTTVTVSS
VL: ELVLTQSPTTMAASPGKKITITCSASSSISSNYLHWYQQKPGFSPKLLIYRTSNLASGVPARFSGSGSGTSYSLTIGTMEAEDVATYYCQQGSSLPFTFGSGTKLEIK
notes: hybridoma supernatant

- binding result [4]: no binding (tested: not given)
- Kd [5]: 0.8 nM
B10: 12A10-E8 (antibody, V domains shown)
VH: QIQLVQSGPELKKPGETVKISCKASGYTFTNYGMNWVKQAPGKGLKWMGWINMYTGEPTYGDDFKGRFVFSLETSVSTVYLQINNLKKEDTATFFCARGGRPDYWGQGTSVTVSS
VL: DVLMTQTPLSLPVSLGDQASISCRSSQSIVHSNGNTYLEWYLQKPGQSPKLLIYKVFNRFSGVPDRFSGSGSGTDFTLKINRVEAEDLGVYYCLQGSHVPYTFGGGTKLEIK
notes: hybridoma supernatant

From patent US20190367592A1 (AC IMMUNE, published 2019)
